Test [1] concerns the target Tn-glycosylated MUC4 on cells (MUC4-Tn; COSMC-KO cells, cancer tissue) (UniProt Q99102). Nature of the test: flow cytometry on T3M4 COSMC-KO (T3M4-M) cells. For orientation: A flow cytometer gives signals particle by particle.
Test [2] has as its target MUC4-Tn glycopeptide … (SEQ ID NO:154) with O-linked GalNAc on the serine and threonine at positions 12 and 13. Nature of the test: BLI (Octet), MUC4 glycopeptide on biosensor. Background: In BLI a coated tip is dipped into the sample, and binding shifts an interference pattern.

By EC50 is commonly meant the midpoint of the concentration-response curve. The term Kd denotes the free concentration of one partner at which half of the binding sites on the other are occupied at equilibrium, for simple one-to-one binding.

Chain of MUC4-Tn glycopeptide … (SEQ ID NO:154) with O-linked GalNAc on the serine and threonine at positions 12 and 13 (peptide, as listed by the source): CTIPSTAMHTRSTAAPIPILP

B1: 2D5-HV1-69-C/KV2B (antibody, V domains shown)
VH: QVQLVQSGAEVKKPGSSVKVSCKASGYTFSDHAIHWVRQAPGQGLEWLGYISPGNADINYAQKFQGRVTITADKSTSTAYMELSSLRSEDTAVYYCKRSMANSFDYWGQGTLVTVSS
VL: DIVMTQTPLSLPVTPGEPASISCRSSQSVLYSSDEKTYLAWYLQKPGQSPQLLIYWASTRESGVPDRFSGSGSGTDFTLKISRVEAEDVGVYYCHQYLSSYTFGQGTKLEIK
In test [1], B1 had a half-maximal effective concentration (EC50) of 0.0194 µg/mL. Besides, the Kd in test [2] came to 5.3 nM.

B2: 2D5-HV1-69-A/KV2A (antibody, V domains shown)
VH: QVQLVQSGAEVKKPGSSVKVSCKASGYTFTDHAIHWVRQAPGQGLEWLGYISPGNDDIQYNAKFKGRATLTADKSTSTAYMELSSLRSEDTAVYFCKRSMANSFDYWGQGTLVTVSS
VL: DIVLTQTPLSLPVTPGEPASISCKSSQSVLYSSDQKNYLAWYLQKPGQSPQLLIYWASTRESGVPDRFSGSGSGTDFTLKISRVEAEDVGVYYCHQYLSSYTFGQGTKLEIK
As for B2, the concentration giving a half-maximal response (EC50) in test [1] was found to be 0.0179 µg/mL. The same molecule gave a Kd in test [2] of 4.1 nM.

B3: 2D5-HV1-69-B/KV2B (antibody, V domains shown)
VH: QVQLVQSGAEVKKPGSSVKVSCKASGYTFTDHAIHWVRQAPGQGLEWLGYISPGNDDIQYNQKFKGRVTITADKSTSTAYMELSSLRSEDTAVYYCKRSMANSFDYWGQGTLVTVSS
VL: DIVMTQTPLSLPVTPGEPASISCRSSQSVLYSSDEKTYLAWYLQKPGQSPQLLIYWASTRESGVPDRFSGSGSGTDFTLKISRVEAEDVGVYYCHQYLSSYTFGQGTKLEIK
The molecule B3 came in with a concentration giving a half-maximal response (EC50) in test [1] of 0.0248 µg/mL. The same molecule gave a Kd in test [2] of 3.3 nM.

B4: 2D5-HV1-3B/KV2B (antibody, V domains shown)
VH: QVQLVQSGAEVKKPGASVKVSCKASGYTFTDHAIHWVRQAPGQRLEWLGYISPGNDDIQYSQKFKGRVTITADKSASTAYMELSSLRSEDTAVYYCKRSMANSFDYWGQGTLVTVSS
VL: DIVMTQTPLSLPVTPGEPASISCRSSQSVLYSSDEKTYLAWYLQKPGQSPQLLIYWASTRESGVPDRFSGSGSGTDFTLKISRVEAEDVGVYYCHQYLSSYTFGQGTKLEIK
In the case of B4, the EC50 in test [1] stood at 0.0163 µg/mL. The dissociation constant Kd in test [2] came out at 7.7 nM.

Values taken from patent US20250101126A1.
